Results reported in paper doi:10.1101/2024.07.11.603087, “Rational Design of a Flavoenzyme for Aerobic Nicotine Catabolism” (bioRxiv, 2024).

Biological target: the molecule itself
Experiment: SEC; Superdex 200 Increase 10/300 GL; molecular weight from elution, consistent with two molecules

B1: PnaoΔN30 (residues 31 to 497) (enzyme, Pseudomonas putida S16, UniProt F8G0P1 31-496, looked up)
chain: IASQLLTLSAPAEAAVKTNVGPSRAGVGYDVIVIGGGFAGVTAAREASRSGLKTLILEGRSRLGGRTFTSKLQNQKVELGGTWVHWTQPNVWTEIMHYGLEVEETVGLANPETVIWVTEDNVKRAPAAEAFEIFGSACNEYYKEARNIYPRPFEPFFERKKLQHVDGLSAADYLEKLPLTREQKDMMDSWLSGNGHNYPETIAYSEIMRWFALSNFNMPTMFDSIARYKIKTGTHSLLEAIMADGNSEVKLSTPVTKVNQDKDKVTVTTEDGVFTASAVIVAVPINTLHDIEYSPKLSAAKVDMGSQRHAGAGVKGYIRVKQNVGNVMTYAPARNKLTPFTSVFTDHVDESGTLLIAFSADPKLIDINDIKAVEKALQPLLPGVEVTASYGYDWNLDPFSKGTWCTYRPNQTTRYLTELQKREGRLFFAGSDMANGWRGFIDGAIENGREVGHQVATYLKRENDNA
notes: Pnao, flavin-dependent pseudooxynicotine oxidase of Pseudomonas putida S16, N-terminal truncation of 30 residues, residues 31 to 497; Cloned into pET-28a between NcoI and XhoI, which would likely give a C-terminal His6 tag (surmised); also called pseudooxynicotine amine oxidase; source: E. coli BL21(DE3), purified (Ni2+-NTA, size-exclusion chromatography)
  stoichiometry N: 2
